Experimental data from IntAct's records for PubMed 10228159.

B1: Protein E7 (Human papillomavirus type 16), P03129 (parent)
chain: MHGDTPTLHEYMLDLQPETTDLYCYEQLNDSSEEEDEIDGPAGQAEPDRAHYNIVTFCCKCDSTLRLCVQSTHVDIRTLEDLLMGTLGIVCPICSQKP
partner: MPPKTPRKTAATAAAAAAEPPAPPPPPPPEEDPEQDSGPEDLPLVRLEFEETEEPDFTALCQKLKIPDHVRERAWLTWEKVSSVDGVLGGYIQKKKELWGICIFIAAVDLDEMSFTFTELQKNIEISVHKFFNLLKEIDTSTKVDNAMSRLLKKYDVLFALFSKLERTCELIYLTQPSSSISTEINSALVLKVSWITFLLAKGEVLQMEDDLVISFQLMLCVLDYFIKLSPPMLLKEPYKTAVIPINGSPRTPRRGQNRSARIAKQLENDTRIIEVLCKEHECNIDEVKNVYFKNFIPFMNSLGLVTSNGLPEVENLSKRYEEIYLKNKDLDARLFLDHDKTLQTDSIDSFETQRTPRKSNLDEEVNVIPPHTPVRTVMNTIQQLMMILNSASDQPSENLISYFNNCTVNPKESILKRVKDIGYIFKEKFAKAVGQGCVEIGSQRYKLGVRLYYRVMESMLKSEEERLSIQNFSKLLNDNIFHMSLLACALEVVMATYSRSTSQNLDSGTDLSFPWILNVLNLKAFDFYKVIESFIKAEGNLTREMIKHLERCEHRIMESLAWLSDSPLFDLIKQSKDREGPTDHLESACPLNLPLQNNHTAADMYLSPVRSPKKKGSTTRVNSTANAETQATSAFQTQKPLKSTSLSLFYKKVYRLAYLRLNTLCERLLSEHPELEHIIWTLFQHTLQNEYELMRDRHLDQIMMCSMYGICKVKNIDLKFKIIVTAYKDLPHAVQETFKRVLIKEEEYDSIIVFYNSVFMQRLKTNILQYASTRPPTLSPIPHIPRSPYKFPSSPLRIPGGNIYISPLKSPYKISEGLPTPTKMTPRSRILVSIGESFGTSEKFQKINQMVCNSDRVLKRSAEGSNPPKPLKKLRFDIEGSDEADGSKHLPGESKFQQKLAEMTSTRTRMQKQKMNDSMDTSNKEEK
B2: Protein E7 (Human papillomavirus type 16), P03129 (parent)
chain: B1 chain

Variants of: B1
Conditions: with rb_human RB1, P06400

Variant	effect of a mutation on the interaction
L67R	decreasing interaction

Variants of: B2
Conditions: with chd4_human CHD4, Q14839
chd4_human CHD4, Q14839, sequence (Q14839 whole entry): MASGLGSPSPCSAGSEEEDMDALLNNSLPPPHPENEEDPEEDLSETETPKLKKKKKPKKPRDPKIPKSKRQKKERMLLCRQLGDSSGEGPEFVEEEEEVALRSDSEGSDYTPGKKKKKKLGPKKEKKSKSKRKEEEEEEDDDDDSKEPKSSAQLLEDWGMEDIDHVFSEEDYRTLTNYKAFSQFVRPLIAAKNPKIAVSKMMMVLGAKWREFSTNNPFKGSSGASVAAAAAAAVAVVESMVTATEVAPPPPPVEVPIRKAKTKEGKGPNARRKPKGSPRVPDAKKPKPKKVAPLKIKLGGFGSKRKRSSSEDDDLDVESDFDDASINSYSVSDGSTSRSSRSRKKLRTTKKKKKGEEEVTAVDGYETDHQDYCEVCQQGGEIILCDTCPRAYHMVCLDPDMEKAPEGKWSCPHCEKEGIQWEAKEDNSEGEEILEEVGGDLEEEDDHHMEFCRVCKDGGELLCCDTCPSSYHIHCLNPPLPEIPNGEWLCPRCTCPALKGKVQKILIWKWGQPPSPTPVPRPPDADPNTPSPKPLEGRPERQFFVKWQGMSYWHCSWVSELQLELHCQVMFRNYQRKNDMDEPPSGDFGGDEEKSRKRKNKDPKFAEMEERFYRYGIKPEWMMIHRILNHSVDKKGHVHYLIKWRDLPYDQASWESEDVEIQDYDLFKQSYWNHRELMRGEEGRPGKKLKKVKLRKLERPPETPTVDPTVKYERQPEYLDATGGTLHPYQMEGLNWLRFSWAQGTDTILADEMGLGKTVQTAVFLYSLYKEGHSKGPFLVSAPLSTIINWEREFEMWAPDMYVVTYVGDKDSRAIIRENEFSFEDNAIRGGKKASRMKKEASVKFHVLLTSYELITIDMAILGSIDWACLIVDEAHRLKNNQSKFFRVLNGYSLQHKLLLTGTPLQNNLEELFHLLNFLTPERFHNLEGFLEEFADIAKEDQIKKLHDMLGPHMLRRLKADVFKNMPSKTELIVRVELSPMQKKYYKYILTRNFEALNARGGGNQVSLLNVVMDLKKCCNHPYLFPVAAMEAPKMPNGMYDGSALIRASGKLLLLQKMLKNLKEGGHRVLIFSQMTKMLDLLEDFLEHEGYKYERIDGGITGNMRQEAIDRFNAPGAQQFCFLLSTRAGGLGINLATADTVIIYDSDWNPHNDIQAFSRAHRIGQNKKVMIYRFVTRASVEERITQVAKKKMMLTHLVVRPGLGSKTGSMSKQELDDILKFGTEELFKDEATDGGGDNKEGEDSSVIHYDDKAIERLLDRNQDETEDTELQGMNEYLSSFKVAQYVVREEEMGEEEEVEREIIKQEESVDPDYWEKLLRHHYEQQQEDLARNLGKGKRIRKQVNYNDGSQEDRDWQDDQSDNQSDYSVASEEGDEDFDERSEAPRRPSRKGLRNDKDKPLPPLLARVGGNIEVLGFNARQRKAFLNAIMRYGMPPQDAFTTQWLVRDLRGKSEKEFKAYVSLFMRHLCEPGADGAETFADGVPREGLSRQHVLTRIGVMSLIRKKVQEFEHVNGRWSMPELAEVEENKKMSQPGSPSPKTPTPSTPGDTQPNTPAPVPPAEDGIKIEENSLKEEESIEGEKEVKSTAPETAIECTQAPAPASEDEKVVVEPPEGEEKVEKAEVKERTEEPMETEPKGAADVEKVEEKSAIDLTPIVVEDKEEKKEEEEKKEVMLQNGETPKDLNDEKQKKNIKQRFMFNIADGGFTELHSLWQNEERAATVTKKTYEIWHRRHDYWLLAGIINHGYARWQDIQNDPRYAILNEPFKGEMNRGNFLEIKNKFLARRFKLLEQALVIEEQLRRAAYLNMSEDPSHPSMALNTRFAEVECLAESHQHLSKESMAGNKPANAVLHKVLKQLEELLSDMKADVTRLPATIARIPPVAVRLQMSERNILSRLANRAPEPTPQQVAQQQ

Variant	effect of a mutation on the interaction
L67R	decreasing interaction
